Measurements reported in the nanobody polyreactivity screen of Harvey et al. (2022).

Test: yeast display, Sf9 membrane polyspecificity reagent, FACS + sequencing; frameworks hold sequencing errors
How it was run: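 Sorting gates, low and high (top ~1%), were placed on anti-HA fluorescence to track expression and on streptavidin fluorescence to track reagent binding. A clone's polyreactivity label is taken from the gate it came out of. The reagent was 10% biotinylated, detergent-solubilized Sf9 membrane, applied for 1 hour at 4 °C to galactose-induced yeast display cells.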

QVQLVESGGGLVQAGGSLRLSCAASGRTLYGYAMGWYRQAPGKERELVAAISESDGSTYADSVKGRFTISRDNAKNTVYLQMNSLKPEDTAVYYCAADYYWYALQDGYYTYGYTYDYWGQGTQVTVSS
polyreactivity (PSR sort gate): low polyreactivity

QVQLVESGGGLVQAGGSLLLSCASSGFIFTKYTMGWYRLAPGKERELVAAITGRGTSTYADSVKGRFSMSRDNAKNTVYLQMNSLIPEDTAVYYCAAVGWFADFLFSDINGYYWGQGTQVTVSA
polyreactivity (PSR sort gate): low polyreactivity

QVQLVESGGGLVQAGGSHRLSCAASGSIFPSYAKGWYRQAPGKERELVATIGRGGTTNYADSVKGRFTISRDNAKNTVYLQMNSLKPEDTAVYYCNAERIWRYKYGYDYWGQGTQVTVSS
polyreactivity (PSR sort gate): high polyreactivity

QVQLQESGGGLVQAGGSLLLSCAASGSISGPHVMGWYRQAPGKEREFVAAINVGANTYYADNVKGRFTISRDNAKNTVYLQMNSLKPEDTAVYYCAAVYYGDIGHEYWGQGTQVTVSC
polyreactivity (PSR sort gate): low polyreactivity

QVQLEESGGGLVQAGGSLRLSCAASGIIFATYAMGWYTQAPGKDRELVAAISSGGRTYYADSVKGRFTISRDNAKNTVYFQMNSLKPEDTAVYYCAAKSGGRSSLYNYWGQGTQVTVSS
polyreactivity (PSR sort gate): high polyreactivity

QVQLVESWGGLDQAGGSLRLSCAASGRILRTYAMGWYRQAPGKERELVAAITWSGGSTYYADSVKGRFTISRDNAKNTVYLQMNSLKPEDTAVYDCNALTPGYRIYDYWGQGTQVTVSS
polyreactivity (PSR sort gate): high polyreactivity

QVQLVESGGGLVQAGGSLRLSCSASGSIFRFNAKGWYRQAPGKERELVASSRWDTASTYYADSVKGRFTISRDNAKNTVYLQMNSLKPEDTAVYYCNAGRPRFYRSRWYYYGYGYWGQGTQVTVSS
polyreactivity (PSR sort gate): high polyreactivity

QVQLVESGGGLVQAGGSLRLSCAASGSTFPTNAMGWYRQAPGKERELVAAISQRGDSTSYADSVKGRFTISRDNAKNTVYLQMNSLKPEDTAVYYCAARPLYSYSQWGYGYWGQGTQVTVSS
polyreactivity (PSR sort gate): high polyreactivity

QVHLVESGGGLVQAGGSLRLSCAASGSIIIRNAMGWYRQAPGKERELVATITRSGSTYYADSVKGRFTISRDNAKNTVYLQMNSLKPEDTAVYYFAADWPNLVEYYYWGQGTQVTVSS
polyreactivity (PSR sort gate): high polyreactivity

QVQLVESGGGLVQAGGSLRLSCAASGITFTRYGMGWYRQAPGKERELVAVISSSGGRTYYADSVKGRFTISRDNAKNTVYLQMNSLKPEDTAVYYCATVRVLAKYRPKMDYWGQGTQVTVSS
polyreactivity (PSR sort gate): high polyreactivity

QVQLVESVGGLVQAGGSLRLSCAASGITFYWYAMGWYRQAPGKERELVASITGNGGGTSYADSVKGRFTISRDNAKNTVYLQMNSLKPEDTAVYYCNTSVGGKEYDSWGQGTQVTVSS
polyreactivity (PSR sort gate): low polyreactivity

QVQLVESGGGLVQAGGSLRLSCAASGSIIRKYAMGWYRQAHGKERELVAAISRRTGNTYYADSVKGRFTISRDNAKNTVYLQMNSLKPEDTAVYYCAADYYSSSSWSEVDSWGQGTQVTVSS
polyreactivity (PSR sort gate): high polyreactivity

QVQLVDSCGGLVQAGGSLRLSCYDSGSTFPYKAMGWYRQAPGKERELVAAITSGASTNYADSVKGRFTISRDNAKNTVYLQMNSLTPEDTAVYYCAAQSYGKRIWSPRFQLNYWGQGTQVTVSS
polyreactivity (PSR sort gate): low polyreactivity

QVQLVESGGGLVQAGGSLRLSCAASGRTFYWYTMGWYRQAPGKERELVAGIRSGGYTNYADSVKGRFTISRDNAKNTVYLQMNSLKPEDTAVYYCAAGGYSSAYGVSYGSYYYWGQGTQVTVSS
polyreactivity (PSR sort gate): low polyreactivity

QVQLVESGGGLVQAGGSLRLSCAASGSTFQGNAMGWYSQAPGKERELVAAISRSGGSTYADSVKGRFTISRDNAKNTVYLQMNSLKPEDTAVYYCAAYSGVGYLWFDYWGQGTQVTVSS
polyreactivity (PSR sort gate): low polyreactivity

QVQLVESGGGLVQEGGSLRLSCAASGFILVNYAMGWYRQAPGKEREFVAAISGSGTRTYYADSVKGRFTISRDNAKNTVYLQMNSLKPEDTAVYYCAARVGYRKLYYYWGQGTQVTVSS
polyreactivity (PSR sort gate): high polyreactivity

QVQLVESGGGLVQAGGSLRLSCADSGITFWRYAMGWYRHAPGKERELVAAISWSGGNTYYADSVKGRFTISRDNAKNTVYLQMNSLKPEDTAVYYCATSRTYVIYDYWGQGTQVTVSS
polyreactivity (PSR sort gate): low polyreactivity

QVQLVESGGGLVQAGGSLRLSCDASGSIFGSYAMGWYRQAPGKEWELVAAISRRGGSTYYADSVKGRFTISRDNAKNTVYLQMNSLKAEDTAVYYCARRDYGVLNKGLGQEGDYWGQGTQVTVSS
polyreactivity (PSR sort gate): low polyreactivity

QVQLVESGGGLVQAGGSLRLSCAASGYIFRWYAMGWYRQAPGKERELVAAISGRGGRTYYADSVKGRFTISRDNAKNTVYLQMNSLKPEDTAVYYCAAVPVVQSQPTYYYWGQGTQVTVSS
polyreactivity (PSR sort gate): high polyreactivity

QVQLVESGGGLVQAGGSLRISCAASGSTSLYYAMGWYSQAPGKEREFVAANTWSGGSTYYADSVKGRFTISRDNAKNSVYLQMNSLQPVDTAVDYWAARSYGYSAGYYWRQGTQVTVSS
polyreactivity (PSR sort gate): high polyreactivity

QVQLVESGGGLVQAGGSLRLSCAASGITLHYYAMGWYRQAPGKEREFVAAISWTGGSTYYADSVKGRFTISRDTAKNTVYLQMNSLKPEDTAVYYCAAEGGAFRTYYYWGQGTQVTVSS
polyreactivity (PSR sort gate): high polyreactivity

QVQLVESGGGLVQAGGSLRLSCAASGSIFGNYAMGWYRQAPGKERELVAGISKSGGRTYYADSVKGRFTISRDNAKITVYLQMNRLKPEDTAVYYCNALVTRYQSLDRLGDYWGQGTQVTVSS
polyreactivity (PSR sort gate): high polyreactivity

QVQLVESGGGLVQAGGSLRLSCAASGSIFRYYAMGWYRQAPGKERELVAAISSSGDNTYYADSVKGRFTISRDNAKNTVYLQMNSLKPEDTAVYYCAVRGERRYIYDYWGQGTQVTVSS
polyreactivity (PSR sort gate): high polyreactivity

QVQLVESGGGLVQAGGSLRLSCAASGRTFSNYVMGWSRQAPGKERELVAAITYSGGSTYYADSVKGRFTISRDNAKYTVYLQMNSLKPEDTAVYYCARRWGGSGYYYWGQGTQVTVSS
polyreactivity (PSR sort gate): high polyreactivity

QDQLVESGGGLVQAGGSLRLSCAASGSIFPNYAMGWYRQAPGKERELVAAISSSGGRTYYADSVKGRFTISRDNAKNTVYLQMNSLKPEDTAVYYCAADTYTSAQHEKYDYWGQGTQVTVSS
polyreactivity (PSR sort gate): low polyreactivity

QVQLVESGGGLVQAGGSLRLSCAASGFIFGQNDMGWYRQAPGKERELVAAISSDGSTYYADSVKGRFTISRDNAKNTVYLQMNSLKPEDTAVYYCAAEYSWYYYYLYVGEYDYWGQGTQVTVSS
polyreactivity (PSR sort gate): low polyreactivity

QVQLVESGGGLVQAGGSLRLSCAASGRTYNVMGWYRQAPGKERYLVAAITWGGGSTHYADSVKGRFTISRDNAKNTVYLQMISLKPEDTAVYYCAADLLYKSTRVDYWGQGTQVTVSS
polyreactivity (PSR sort gate): low polyreactivity

QVQLVESGGGLVQAGGSLRLSCAASGRTFVYNAMGWYRQAPGKEREMVSGITNGGSTNYADSVKGRFTISRDNAKNTVYLQMNSLKPEDTAVYYCAADSRVYPYYFGDFGYWGQGTQVTVSS
polyreactivity (PSR sort gate): low polyreactivity

QVQLVESGGGLDQAGGSLRLSCAASGRILRYYTMGWYRQAPGKERELVAAISRSGGGTYYADSVKGRFTISRDNAKNTVYLQMNSLKPEDTAVYYCAKQTHQKAYDYWGQGTQVTVSS
polyreactivity (PSR sort gate): high polyreactivity

QVQHVESGGALVQAGGSLRLSCAASGSTYYIYAMGWYRHGPGKERELVARISGSGGSTYYADSVKGRFTISRDNAKNTVYLQMNSLKPEDTAVYYCAADDIYKYYQYYAFQYFRYDYWGQGTQVTVSS
polyreactivity (PSR sort gate): low polyreactivity

QVQLVESGGGLVQAGGSLRLSCAASGFTFTYYAMGWYRQAPGKERELVASISRRGGDTYYADSVKGRFTISRDNAKNTVYLQMNSLKPEDTAVYYCATRRRQALDGGYYYWGQGTQVTVSS
polyreactivity (PSR sort gate): high polyreactivity
